From the RNAGym collection of RNA variant scans (doi:10.1073/pnas.2313332121)
Fewer inactive variants are shown than the library holds.

B1: TPR 5TU (parent)
chain: GGAUCUUCUCGAUCUAACAAAAAAGACAAAUCUGCCACAAAGCUUGAGAGCAUCUUCGGAUGCAGAGGCGGCAGCCUUCGGUGGCGCGAUAGCGCCAACGUUCUCAACUAUGACACGCAAAACGCGUGCUCCGUUGAAUGGAGUUUAUCAUG

Variants of: B1
Assay: polymerase ribozyme fitness, log enrichment relative to wild type (log ratio); higher = more active; in vitro selection for triplet polymerase activity
Summary of the method: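 Mutant libraries for each subunit of a heterodimeric triplet polymerase ribozyme were made by PCR and then transcribed. Each library underwent one round of in vitro selection in triplicate: annealing with a biotinylated primer, the partner subunit and triplets, frozen incubation at −7 °C, gel excision of extended constructs, streptavidin-bead capture and RT-PCR. Input and output libraries were Illumina-sequenced, and only genotypes with ≥10 input reads and ≥1 read per output were kept. Fitness is the logarithm, base 2, of genotype enrichment over wild-type enrichment, computed from inverse-variance-weighted replicate averages.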

| Variant | polymerase ribozyme fitness (log ratio) |
| --- | --- |
| C14A G34A A40C U55G C87G C114G G117U A121C U139A | ≤ -4.2 |
| C54G C99G G136U | -3.14 |
| U78C G84A G136U | -3.14 |
| U7G C8A G46C C63U G83C C85G C114G C149A | ≤ -4.2 |
| U82C U104G G117U | 0.147 |
| A24U U45G G86A | -2.58 |
| C54G G68U C87A U104G | ≤ -4.2 |
| G58A U61A C87A G117A | ≤ -4.2 |
| C76U U101A | -1.35 |
| G84U U127G | -3.43 |
| A20C G83C C96G | -1.83 |
| C51A C118U G152A | -3.06 |
| A19U A60G C72U G143U | ≤ -4.2 |
| U13G C32A G86C A107G C125G U135A | ≤ -4.2 |
| C105A C129G | ≤ -4.2 |
| A49U C85U | -2.25 |
| C5G A16G A21U C93U U101G A110C C116U G124C | ≤ -4.2 |
| U104G C118A A122C | -2.35 |
| U9G U61A C75U C85U G124C | ≤ -4.2 |
| G86C C99U | -2.83 |
| A41G U77G C85G C96U G124C | ≤ -4.2 |
| G58C A73G C85G | -2.21 |
| U53A G92C U102C | -3.58 |
| G88U A121C | ≤ -4.2 |

| Variant | polymerase ribozyme fitness (log ratio) |
| --- | --- |
| A24U A37U C51A C87U A98U G100U | ≤ -4.2 |
| A21U C96U C108U C132A | ≤ -4.2 |
| U6C C14U C38U U61A U145C | -4.04 |
| U15A A47C C54G A115G U127C U146A | -1.14 |
| A49U C57U C93G C103G U144C | ≤ -4.2 |
| G46C G48A A73U U77C G80U C87U | -3.85 |
| A19U A22C C93U U145A | -1.22 |
| C10U A26U G42A A47U A89C C96U A107U G112C | ≤ -4.2 |
| A52U U77G G84C G128A G143A | ≤ -4.2 |
| A22U G46U C69A C93A C131A U148A | ≤ -4.2 |
| G67U G70C G86A C132G | ≤ -4.2 |
| C10A C32G C38U U56G A60G C95A C131U G140U | -4.19 |
| A29U A91U | ≤ -4.2 |
| A40C U109C | -3.47 |
| U45A U77G G84U C118U | ≤ -4.2 |
| A22C C57A C118U | -1.03 |
| A12U U55A G141A | -1.32 |
| A30G C85U U134C | -3.93 |
| C76U C87U | -0.242 |
| C27U A28U C76U U78G C93G A119G | ≤ -4.2 |
| C54U G81A G86U C105A A147U | -4.16 |
| G88A C93A C123U G126U G133U G140U | ≤ -4.2 |
| G50U U78A | ≤ -4.2 |
| A21U A29C C95A U101G G126C U135G G143U | ≤ -4.2 |

| Variant | polymerase ribozyme fitness (log ratio) |
| --- | --- |
| U15G U44G A73C G74U G80C C93U G141C | ≤ -4.2 |
| C51G G88A | ≤ -4.2 |
| A20U G48C C57G G128A | ≤ -4.2 |
| G11U C35U C51U U55G G59U G68A G80A G83A | ≤ -4.2 |
| U31C A52C U56A U82C A107U | ≤ -4.2 |
| A3C U4G A16G U33G C43U G92U A106G | ≤ -4.2 |
| A37C A52C U53A G92A | ≤ -4.2 |
| A89G C95A G136U | -3.75 |
| A28G G88U G92A A98G G133U U144A | ≤ -4.2 |
| A17U | -0.256 |
| G11U C32A G50A C116U A121U C132U U144G | ≤ -4.2 |
| C85U C116G U145A | -2.57 |
| A26C C36G C116A U148G | ≤ -4.2 |
| A28C U144G | -4.03 |
| G50A U55A A97C A147U U148A | ≤ -4.2 |
| A12U C14U A121U C125U | -0.306 |
| A91U C118G G141C | -3.94 |
| C8A A40U G42A G68A C85U U144G | ≤ -4.2 |
| A12G G48A C54U C85G G117U | -2.26 |
| A47G G62U U145C U151A | ≤ -4.2 |
| U13G U31C A40G G58U U78C C85G C114U G141U | ≤ -4.2 |
| A47G G59C U61A G92C G141A U148C | ≤ -4.2 |
| C125U U148G | ≤ -4.2 |
| C5G U77A G94U G140C G152A | ≤ -4.2 |

| Variant | polymerase ribozyme fitness (log ratio) |
| --- | --- |
| C8A A17U A39U C85U U139A | ≤ -4.2 |
| U31C C57A G83U C118U G124U A142C | -2.24 |
| A17G C38U C57A C63A A115G U144A | -1.28 |
| G11U A40U G84A A110G | -3.56 |
| A110C A121U | -4.04 |
| A17C G50U U56A G58C G84U | -1.22 |
| C14G C27G G58A G86U U127C | -4.16 |
| A52G A106U U135A | -1.7 |
| A29C C85U | -3.79 |
| A17G U61A G71A G143A | ≤ -4.2 |
| U15C C87U A142U | -0.702 |
| C5U A73G C85G | -0.907 |
| C35U G88C C103U | ≤ -4.2 |
| U7G A12C C51G A64C C123U C132G | ≤ -4.2 |
| C54A U82C U146C | -0.537 |
| A20U A40C G94A A115U A119C | -3.89 |
| A20C C36A C51U U55G C69G A73U G81A C96U G141U | ≤ -4.2 |
| A24U A37G | -2.41 |
| C87U A89C U139G | -2.56 |
| A19G G58C G59C | 0.18 |
| U31C G143A | 0.14 |
| C85G C114G | -3.8 |
| A39G A49G G70A C87A G94A C99G G126A | ≤ -4.2 |
| C85U C93U C131A | -2.94 |

| Variant | polymerase ribozyme fitness (log ratio) |
| --- | --- |
| U6G C35U C76A C87U | -2.63 |
| A49C C75G C87A | ≤ -4.2 |
| G68A G83A C116U | ≤ -4.2 |
| A40U C75U C95U A98U G140A | -3.39 |
| G48A C96U | -0.356 |
| A73G C93G U130C | -3.08 |
| A40U U55G G58A A97G | -0.0754 |
| U61A C76A C87U | -3.68 |
| C10U U135A G141A C149G | ≤ -4.2 |
| C14G C36U U55G G68U C93G U134A | ≤ -4.2 |
| C35U C43A A60C U101G | ≤ -4.2 |
| U31A A49C C93U C118A A121U | ≤ -4.2 |
| C93G G128U U146C | ≤ -4.2 |
| G25C G94A | -3.16 |
| C54U U61A A106G G152C | ≤ -4.2 |
| C32G G46A A52G U53A A60U C87A A89U A142U | ≤ -4.2 |
| A40U G68C C79U G84A C96A A138C | ≤ -4.2 |
| A17C C57U C93A U101G U144A | -2.86 |
| A12U C27U C38U G59U C63A C93A | -4.12 |
| U146C U151G | ≤ -4.2 |
| C36U A91U | ≤ -4.2 |
| A22U A40C G65A | -3.81 |
| C36G A49C G58A G70C U82G A98U U104A A106G | ≤ -4.2 |
| A21U U55A C93G A97U A115U | ≤ -4.2 |

| Variant | polymerase ribozyme fitness (log ratio) |
| --- | --- |
| C105A | -0.411 |
| A22C C96A A97U U101C | -1.53 |
| U7C U9C A20U C75G C93U A106C C114A | ≤ -4.2 |
| A73G C85A G124A | -1.16 |
| U33G A52G U130G C131U G133U U146A | ≤ -4.2 |
| G84U U135A | -2.85 |
| C132G G133U | -2.9 |
| A17C A40G | -1.63 |
| U7C C35U U127G | -3.61 |
| U55A G84U A113C | -3.62 |
| C36U A142C | -2.05 |
| C87G A107G | ≤ -4.2 |
| U7C A16U G92C C116G | -3.77 |
| A3C A23C G74A C85A C103U U130A | ≤ -4.2 |
| A16U A22C G59A C118A | -3.09 |
| U13C A21G U31C G42A A52C C95A C129G | ≤ -4.2 |
| A22U A30U C95U U134A | ≤ -4.2 |
| C38U G62C G94U | -3.3 |
| G42C U53A C79U C85G A89U C125U | ≤ -4.2 |
| C76U G83C C118U | -0.363 |
| A39U U53A C85A | ≤ -4.2 |
| A21G C38U A47C U90A C96A A137U | ≤ -4.2 |
| C10G A30G C38A G94U C125G U144C | ≤ -4.2 |
| A21U G80A | -0.249 |

| Variant | polymerase ribozyme fitness (log ratio) |
| --- | --- |
| C35U A41C C105A | -4.09 |
| G92A C116G | -2.6 |
| A28C A40U U53A G84U A115U | ≤ -4.2 |
| U9G C18U A39G A49C C51A G94U A106G | ≤ -4.2 |
| C76A C85A G143U | ≤ -4.2 |
| G81A G133C | -3.84 |
| A20G G46U G92U | -0.107 |
| C69U C85U | -1.39 |
| U56C C93U | -1.53 |
| U6G A17U A21U A49C C51U C79U G84A C114G | ≤ -4.2 |
| A37G G50U A97C A137G | -3.75 |
| U90C G94U | -3.46 |
| G80U A91C A106U C132G | ≤ -4.2 |
| A19U A21U G46C C96A U134A | ≤ -4.2 |
| A12U C14A G42A C96G U111G A122U | ≤ -4.2 |
| C5A A20C C96U | -0.294 |
| A16G C36G | -4.12 |
| U4A A24U C57A C93U G94U G141U | -2.67 |
| U56C C85G C149A | ≤ -4.2 |
| C14A A16C U56G C57G A91C G136U | ≤ -4.2 |
| C63G G81U G92A G117C C118U G143U | ≤ -4.2 |
| C54G G94A | -1.68 |
| A12C G50A G59C G92U | -2.67 |
